Numbered stars: 1 amine (or outer) side, 2 acyl side, 3 side chain; on linkers, the order of the positions; unused ones are H or OH. Bridge positions count the residues as written; N and C are the ends. Side chains are listed from the residue outwards. Ends that are not written are not given here. * marks the point of attachment. C20 diacid = O=C(O)CCCCCCCCCCCCCCCCCCC(=O)*; γGlu = O=C(O)[C@H](CCC(=O)[*:2])N[*:1]; AEEA = NCCOCCOCC(=O)O

These results are taken from patent US20140087995A1 (published 2014).

For experiment [1], the target named is T1, rat calcitonin receptor (rat, UniProt P32214 25-516).
T1 construct: whole, on cells; Cell membranes of transiently transfected BHK tk'ts 13 cells (Assay VIII); also called rCTR; rCT
T1 sequence (looked up): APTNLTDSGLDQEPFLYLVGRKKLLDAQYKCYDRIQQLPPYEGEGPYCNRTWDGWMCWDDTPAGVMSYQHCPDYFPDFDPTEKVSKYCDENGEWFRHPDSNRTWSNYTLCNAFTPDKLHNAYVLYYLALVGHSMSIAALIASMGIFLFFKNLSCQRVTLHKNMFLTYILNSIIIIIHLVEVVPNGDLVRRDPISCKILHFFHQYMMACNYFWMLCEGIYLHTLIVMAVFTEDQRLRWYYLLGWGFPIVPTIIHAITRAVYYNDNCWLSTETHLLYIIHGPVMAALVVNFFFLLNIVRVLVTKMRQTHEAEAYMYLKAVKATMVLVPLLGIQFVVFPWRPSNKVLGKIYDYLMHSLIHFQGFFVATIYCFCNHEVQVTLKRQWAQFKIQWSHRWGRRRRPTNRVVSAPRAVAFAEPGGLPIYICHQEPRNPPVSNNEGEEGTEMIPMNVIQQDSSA
Description: ratio IC50 rat calcitonin receptor / IC50 rat amylin receptor.

The target of experiment [2] is T2, human calcitonin receptor (human, UniProt P30988 25-474).
T2 construct: whole, on cells; Cell membranes of a stably transfected BHK cell line (Assay VII); also called hCTR; hCT
T2 sequence (looked up): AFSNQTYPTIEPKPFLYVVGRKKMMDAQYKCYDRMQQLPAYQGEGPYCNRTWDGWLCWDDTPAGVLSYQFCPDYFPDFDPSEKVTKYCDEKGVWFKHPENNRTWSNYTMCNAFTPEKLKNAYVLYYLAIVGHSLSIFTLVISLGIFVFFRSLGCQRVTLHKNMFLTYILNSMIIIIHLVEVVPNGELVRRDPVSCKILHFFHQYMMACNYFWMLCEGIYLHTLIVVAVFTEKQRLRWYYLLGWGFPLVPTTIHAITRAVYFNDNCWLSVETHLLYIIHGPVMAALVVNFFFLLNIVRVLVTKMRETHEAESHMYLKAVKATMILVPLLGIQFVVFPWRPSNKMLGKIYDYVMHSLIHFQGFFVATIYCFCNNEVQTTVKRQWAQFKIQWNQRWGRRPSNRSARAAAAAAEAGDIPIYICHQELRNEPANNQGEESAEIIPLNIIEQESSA
Description: ratio IC50 human calcitonin receptor / IC50 human amylin receptor. The method in brief: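 IC₅₀ values were derived by one-site competition analysis of SPA counts. Cell membranes (35 ng/μL) with SPA beads were incubated with test compounds for 120 min at 25° C in Hepes buffer, pH 7.4, containing CaCl2, MgCl₂, OA and Tween20.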

The target of experiment [3] is T1, rat calcitonin receptor. The experiment can be described thus: SPA competition vs 125I-calcitonin, membranes with rat CTR (Assay VIII).
The target of experiment [4] is T3, rat amylin receptor (rat calcitonin receptor + rat RAMP 3) (rat, UniProt P32214 25-516; Q9JJ73 23-147).
T3 construct: whole, on cells; Cell membranes of transiently transfected BHK tk'ts 13 cells (Assay VI); also called rAmylin-R; rat amylin 3(a) receptor
T3 sequence (looked up) 1: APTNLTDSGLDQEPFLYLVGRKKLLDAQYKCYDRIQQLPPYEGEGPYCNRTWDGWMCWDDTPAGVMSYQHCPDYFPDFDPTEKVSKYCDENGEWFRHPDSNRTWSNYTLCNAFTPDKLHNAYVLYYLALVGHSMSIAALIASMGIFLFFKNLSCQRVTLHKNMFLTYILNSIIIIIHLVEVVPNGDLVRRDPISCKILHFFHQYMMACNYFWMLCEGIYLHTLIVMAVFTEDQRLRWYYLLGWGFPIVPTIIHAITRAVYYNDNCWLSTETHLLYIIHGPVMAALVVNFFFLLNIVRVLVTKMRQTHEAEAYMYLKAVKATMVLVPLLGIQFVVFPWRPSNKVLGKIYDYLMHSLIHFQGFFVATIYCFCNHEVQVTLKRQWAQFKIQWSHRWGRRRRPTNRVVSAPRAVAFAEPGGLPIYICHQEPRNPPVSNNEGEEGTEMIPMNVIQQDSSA
T3 sequence (looked up) 2: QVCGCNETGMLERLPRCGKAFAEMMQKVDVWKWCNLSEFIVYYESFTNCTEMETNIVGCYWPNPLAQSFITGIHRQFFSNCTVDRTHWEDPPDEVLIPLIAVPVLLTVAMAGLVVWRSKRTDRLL
Description: SPA competition vs 125I-rat amylin, membranes with rat CTR + rat RAMP3 (Assay VI).

B1: N^α1-[(4S)-4-carboxy-4-(19-carboxynonadecanoylamino)butanoyl]-[Glu14,Arg17,Pro21,Pro25,Pro28,Pro29]-h-amylin (peptide)
peptide: {C20 diacid-γGlu}-KCNTATCATQRLAEFLRHSSPNFGPILPPTNVGSNTY-NH2
modifications: disulfide 2-7
SMILES: CC[C@H](C)[C@H](NC(=O)[C@@H]1CCCN1C(=O)CNC(=O)[C@H](Cc1ccccc1)NC(=O)[C@H](CC(N)=O)NC(=O)[C@@H]1CCCN1C(=O)[C@H](CO)NC(=O)[C@H](CO)NC(=O)[C@H](Cc1c[nH]cn1)NC(=O)[C@H](CCCNC(=N)N)NC(=O)[C@H](CC(C)C)NC(=O)[C@H](Cc1ccccc1)NC(=O)[C@H](CCC(=O)O)NC(=O)[C@H](C)NC(=O)[C@H](CC(C)C)NC(=O)[C@H](CCCNC(=N)N)NC(=O)[C@H](CCC(N)=O)NC(=O)[C@@H](NC(=O)[C@H](C)NC(=O)[C@@H]1CSSC[C@H](NC(=O)[C@H](CCCCN)NC(=O)CC[C@H](NC(=O)CCCCCCCCCCCCCCCCCCC(=O)O)C(=O)O)C(=O)N[C@@H](CC(N)=O)C(=O)N[C@@H]([C@@H](C)O)C(=O)N[C@@H](C)C(=O)N[C@@H]([C@@H](C)O)C(=O)N1)[C@@H](C)O)C(=O)N[C@@H](CC(C)C)C(=O)N1CCC[C@H]1C(=O)N1CCC[C@H]1C(=O)N[C@H](C(=O)N[C@@H](CC(N)=O)C(=O)N[C@H](C(=O)NCC(=O)N[C@@H](CO)C(=O)N[C@@H](CC(N)=O)C(=O)N[C@H](C(=O)N[C@@H](Cc1ccc(O)cc1)C(N)=O)[C@@H](C)O)C(C)C)[C@@H](C)O
notes: Acylated analogue of human amylin; also called compound 6
For B1, the “Ratio rCT/rAmylin binding” value in experiment [1] was 21.7. The “Ratio hCT/hAmylin binding” value in experiment [2] was 20. The 50% inhibitory concentration (IC50) – broadly, the concentration that inhibits the measured activity by half – stood at 51.5 nM in experiment [3] and 2.37 nM in experiment [4].

B2: N{Alpha-1}-[(4S)-4-carboxy-4-(19-carboxynonadecanoylamino)butanoyl]-[Glu14,Arg17,Pro21,Pro27,Lys34]-h-amylin (peptide)
peptide: {C20 diacid-γGlu}-KCNTATCATQRLAEFLRHSSPNFGAIPSSTNVGKNTY-NH2
modifications: disulfide 2-7
SMILES: CC[C@H](C)[C@H](NC(=O)[C@H](C)NC(=O)CNC(=O)[C@H](Cc1ccccc1)NC(=O)[C@H](CC(N)=O)NC(=O)[C@@H]1CCCN1C(=O)[C@H](CO)NC(=O)[C@H](CO)NC(=O)[C@H](Cc1c[nH]cn1)NC(=O)[C@H](CCCNC(=N)N)NC(=O)[C@H](CC(C)C)NC(=O)[C@H](Cc1ccccc1)NC(=O)[C@H](CCC(=O)O)NC(=O)[C@H](C)NC(=O)[C@H](CC(C)C)NC(=O)[C@H](CCCNC(=N)N)NC(=O)[C@H](CCC(N)=O)NC(=O)[C@@H](NC(=O)[C@H](C)NC(=O)[C@@H]1CSSC[C@H](NC(=O)[C@H](CCCCN)NC(=O)CC[C@H](NC(=O)CCCCCCCCCCCCCCCCCCC(=O)O)C(=O)O)C(=O)N[C@@H](CC(N)=O)C(=O)N[C@@H]([C@@H](C)O)C(=O)N[C@@H](C)C(=O)N[C@@H]([C@@H](C)O)C(=O)N1)[C@@H](C)O)C(=O)N1CCC[C@H]1C(=O)N[C@@H](CO)C(=O)N[C@@H](CO)C(=O)N[C@H](C(=O)N[C@@H](CC(N)=O)C(=O)N[C@H](C(=O)NCC(=O)N[C@@H](CCCCN)C(=O)N[C@@H](CC(N)=O)C(=O)N[C@H](C(=O)N[C@@H](Cc1ccc(O)cc1)C(N)=O)[C@@H](C)O)C(C)C)[C@@H](C)O
notes: Acylated analogue of human amylin; also called compound 36
In the case of B2, the “Ratio rCT/rAmylin binding” value in experiment [1] came out at 32.4. The “Ratio hCT/hAmylin binding” value in experiment [2] was 15.7. In addition, the IC50 in experiment [3] came to 60.1 nM; in experiment [4], 1.86 nM.

B3: N^ε1-[2-[2-[2-[[(4S)-4-carboxy-4-(19-carboxynonadecanoylamino)butanoyl]amino]ethoxy]ethoxy]acetyl]-[Arg17,Pro21,Pro27]-h-amylin (peptide)
peptide: K([AEEA-γGlu-C20 diacid])CNTATCATQRLANFLRHSSPNFGAIPSSTNVGSNTY-NH2
modifications: disulfide 2-7; N-terminus assumed
SMILES: CC[C@H](C)[C@H](NC(=O)[C@H](C)NC(=O)CNC(=O)[C@H](Cc1ccccc1)NC(=O)[C@H](CC(N)=O)NC(=O)[C@@H]1CCCN1C(=O)[C@H](CO)NC(=O)[C@H](CO)NC(=O)[C@H](Cc1c[nH]cn1)NC(=O)[C@H](CCCNC(=N)N)NC(=O)[C@H](CC(C)C)NC(=O)[C@H](Cc1ccccc1)NC(=O)[C@H](CC(N)=O)NC(=O)[C@H](C)NC(=O)[C@H](CC(C)C)NC(=O)[C@H](CCCNC(=N)N)NC(=O)[C@H](CCC(N)=O)NC(=O)[C@@H](NC(=O)[C@H](C)NC(=O)[C@@H]1CSSC[C@H](NC(=O)[C@@H](N)CCCCNC(=O)COCCOCCNC(=O)CC[C@H](NC(=O)CCCCCCCCCCCCCCCCCCC(=O)O)C(=O)O)C(=O)N[C@@H](CC(N)=O)C(=O)N[C@@H]([C@@H](C)O)C(=O)N[C@@H](C)C(=O)N[C@@H]([C@@H](C)O)C(=O)N1)[C@@H](C)O)C(=O)N1CCC[C@H]1C(=O)N[C@@H](CO)C(=O)N[C@@H](CO)C(=O)N[C@H](C(=O)N[C@@H](CC(N)=O)C(=O)N[C@H](C(=O)NCC(=O)N[C@@H](CO)C(=O)N[C@@H](CC(N)=O)C(=O)N[C@H](C(=O)N[C@@H](Cc1ccc(O)cc1)C(N)=O)[C@@H](C)O)C(C)C)[C@@H](C)O
notes: Acylated analogue of human amylin; also called compound 41
As to B3, in experiment [1], the “Ratio rCT/rAmylin binding” value was found to be 54. Besides, the “Ratio hCT/hAmylin binding” value in experiment [2] came to 49.9. For the same molecule, the IC50 in experiment [3] was found to be 74.1 nM; in experiment [4], 1.37 nM.

B4: N^α1-[2-[2-[2-[[2-[2-[2-[[(4S)-4-carboxy-4-(19-carboxynonadecanoylamino)butanoyl]amino]ethoxy]ethoxy]acetyl]amino]ethoxy]ethoxy]acetyl]-[Arg17,Pro21,Pro27]-h-am … (peptide)
peptide: KCNTATCATQRLANFLRHSSPNFGAIPSSTNVGSNTY
modifications: C20 diacid-gGlu-2xOEG on alpha-amino of the N-terminal residue; Cys2-Cys7 disulfide; C-terminal amide (as human amylin)
notes: Acylated analogue of human amylin; also called compound 24
With B4, the “Ratio rCT/rAmylin binding” value in experiment [1] was found to be 116. Moreover, the “Ratio hCT/hAmylin binding” value in experiment [2] turned out to be 90. Further, the IC50 in experiment [3] was determined as 350 nM; in experiment [4], 3.01 nM.

B5: N^ε1-[2-[2-[2-(19-carboxynonadecanoylamino)ethoxy]ethoxy]acetyl]-[Arg17,Pro21,Pro27]-h-amylin (peptide)
peptide: K([AEEA-C20 diacid])CNTATCATQRLANFLRHSSPNFGAIPSSTNVGSNTY-NH2
modifications: disulfide 2-7; N-terminus assumed
SMILES: CC[C@H](C)[C@H](NC(=O)[C@H](C)NC(=O)CNC(=O)[C@H](Cc1ccccc1)NC(=O)[C@H](CC(N)=O)NC(=O)[C@@H]1CCCN1C(=O)[C@H](CO)NC(=O)[C@H](CO)NC(=O)[C@H](Cc1c[nH]cn1)NC(=O)[C@H](CCCNC(=N)N)NC(=O)[C@H](CC(C)C)NC(=O)[C@H](Cc1ccccc1)NC(=O)[C@H](CC(N)=O)NC(=O)[C@H](C)NC(=O)[C@H](CC(C)C)NC(=O)[C@H](CCCNC(=N)N)NC(=O)[C@H](CCC(N)=O)NC(=O)[C@@H](NC(=O)[C@H](C)NC(=O)[C@@H]1CSSC[C@H](NC(=O)[C@@H](N)CCCCNC(=O)COCCOCCNC(=O)CCCCCCCCCCCCCCCCCCC(=O)O)C(=O)N[C@@H](CC(N)=O)C(=O)N[C@@H]([C@@H](C)O)C(=O)N[C@@H](C)C(=O)N[C@@H]([C@@H](C)O)C(=O)N1)[C@@H](C)O)C(=O)N1CCC[C@H]1C(=O)N[C@@H](CO)C(=O)N[C@@H](CO)C(=O)N[C@H](C(=O)N[C@@H](CC(N)=O)C(=O)N[C@H](C(=O)NCC(=O)N[C@@H](CO)C(=O)N[C@@H](CC(N)=O)C(=O)N[C@H](C(=O)N[C@@H](Cc1ccc(O)cc1)C(N)=O)[C@@H](C)O)C(C)C)[C@@H](C)O
notes: Acylated analogue of human amylin; also called compound 43
For B5, the “Ratio rCT/rAmylin binding” value in experiment [1] stood at 69.1. Besides, the “Ratio hCT/hAmylin binding” value in experiment [2] was found to be 34.7. Further, the results for the IC50 in experiment [3] and in experiment [4] were 7.6 nM and 0.11 nM, respectively.
